A short description of the data set: Standard protocol for determination of kcat and KM (continuous spectrophotometric assay, Acetyl CoA hydrolysis at 235 nm). It counts as biochemical. The note with it: purified protein, about 23° C., 0.2 mM acetyl CoA; for Kcat: 20 mM HEPES pH 6.8, 10% ethylene glycol; for Km: pH 6.8, glyphosate 0.125 to 10 mM. The method, then:
KM was calculated from the initial reaction rates obtained from concentrations of glyphosate ranging from 0.125 to 10 mM, using the Lineweaver-Burke transformation of the Michaelis-Menten equation. kcat/KM was determined by dividing the value determined for kcat by the value determined for KM.
Using this methodology, kinetic parameters for a number of GAT polypeptides exemplified herein were determined. For example, the kcat, KM and kcat/KM for the GAT polypeptide corresponding to SEQ ID NO:445 have been determined to be 322 min^−1, 0.5 mM and 660 mM^−1 min^−1, respectively, using the assay conditions described above. The kcat, KM and kcat/KM for the GAT polypeptide corresponding to SEQ ID NO:457 have been determined to be 118 min^−1, 0.1 mM and 1184 mM^−1 min^−1, respectively, using the assay conditions described above. The kcat, KM and kcat/KM for the GAT polypeptide corresponding to SEQ ID NO:300 have been determined to be 296 min^−1, 0.65 mM and 456 mM^−1 min^−1, respectively, using the assay conditions described above. One of skill in the art can use these numbers to confirm that a GAT activity assay is generating kinetic parameters for a GAT suitable for comparison with the values given herein. For example, the conditions used to compare the activity of GATs should yield the same kinetic constants for SEQ ID NO: 300, 445 and 457 (within normal experimental variance) as those reported herein, when the conditions are used to compare a test GAT with the GAT polypeptides exemplified herein. Kinetic parameters for a number of GAT polypeptide variants were determined according to this methodology and are provided in Table 3.

Where a chain is given by its changes, count along the chain named.

B1: SEQ ID NO: 372: GAT polypeptide (protein)
chain: MIEVKPINAEDTYEIRHRILRPNQPLEACKYETDLLGGTFHLGGYYRGKLISIASFHQAEHPELEGQKQYQLRGMATLEGYREQKAGSTLIRHAEELLRKKGADLLWCNARTSASGYYKKLGFSEQGGVYDIPPIGPHILMYKKLA
modifications: 4B_19C8
notes: GAT polypeptide
B1: the Kcat worked out at 0.265 s⁻¹ and the Km (commonly the substrate concentration at which the rate is half of its maximum) amounted to 1200 µM.

B2: SEQ ID NO: 393: GAT polypeptide (protein)
chain: B1 chain with E10G, P62S, I135V, A146T
modifications: 6_20A9
notes: GAT polypeptide
On to B2, for which the Kcat amounted to 0.752 s⁻¹ and the Km worked out at 1300 µM.

B3: SEQ ID NO: 383: GAT polypeptide (protein)
chain: B1 chain with P62S, I135V, A146T
modifications: 6_16A5
notes: GAT polypeptide
On to B3, for which the Kcat worked out at 0.73 s⁻¹ and the Km came to 1100 µM.

B4: SEQ ID NO: 374: GAT polypeptide (protein)
chain: B1 chain with K30M, P62S, G80E, T112I, A146T
modifications: 4B_21C6
notes: GAT polypeptide
With B4, the Kcat came out at 0.197 s⁻¹ and the Km was determined as 800 µM.

B5: SEQ ID NO: 381: GAT polypeptide (protein)
chain: B1 chain with K30M, P62S, Q67H, G80E, I135V, A146T
modifications: 6_14D10
notes: GAT polypeptide
In the case of B5, the Kcat was determined as 0.703 s⁻¹ and the Km amounted to 1500 µM.

B6: SEQ ID NO: 376: GAT polypeptide (protein)
chain: B1 chain with V4A, P62S, G128E, A146T
modifications: 4B_2H8
notes: GAT polypeptide
For the molecule B6, the Kcat stood at 0.638 s⁻¹ and the Km turned out to be 1200 µM.

B7: SEQ ID NO: 377: GAT polypeptide (protein)
chain: B1 chain with P62S, Q126H, G128E, A146T
modifications: 4B_6D8
notes: GAT polypeptide
Take B7: the Kcat turned out to be 0.378 s⁻¹ and the Michaelis constant (Km) was 1500 µM.

B8: SEQ ID NO: 392: GAT polypeptide (protein)
chain: B1 chain with K30M, G37R, P62S, E63D, G80E, G128E, I135V, A146T
modifications: 6_20A7
notes: GAT polypeptide
As for B8, the Kcat is 0.673 s⁻¹ and the Km amounted to 1000 µM.

B9: SEQ ID NO: 391: GAT polypeptide (protein)
chain: B1 chain with F40L, H93Q, I135V, K144E, A146T
modifications: 6_19C8
notes: GAT polypeptide
Consider B9, for which the Kcat worked out at 1.25 s⁻¹ and the Km amounted to 2000 µM.

B10: SEQ ID NO: 384: GAT polypeptide (protein)
chain: B1 chain with K30M, E60V, P62S, I135V, A146T
modifications: 6_16F5
notes: GAT polypeptide
Turning to B10, the Kcat worked out at 0.587 s⁻¹ and the Km came out at 1000 µM.

B11: SEQ ID NO: 380: GAT polypeptide (protein)
chain: B1 chain with K30M, T39A, R47Q, E60V, P62S, A114V, A146T
modifications: 4H1
notes: GAT polypeptide
With B11, the Kcat worked out at 0.0217 s⁻¹ and the Km is 1400 µM.

B12: SEQ ID NO: 386: GAT polypeptide (protein)
chain: B1 chain with K30R, T112I, G128E, I135V, A146T
modifications: 6_18C7
notes: GAT polypeptide
With B12, the Kcat was 0.537 s⁻¹ and the Michaelis constant (Km) was found to be 1200 µM.

B13: SEQ ID NO: 397: GAT polypeptide (protein)
chain: B1 chain with K30M, G37E, P62S, G128E, I135V, A146T
modifications: 6_22D9
notes: GAT polypeptide
With B13, the Kcat was 0.732 s⁻¹ and the Km was determined as 1300 µM.

B14: SEQ ID NO: 388: GAT polypeptide (protein)
chain: B1 chain with V4A, K30M, G128E, I135T, A146T
modifications: 6_19A10
notes: GAT polypeptide
For B14, the Kcat amounted to 1.45 s⁻¹ and the Km stood at 1900 µM.

B15: SEQ ID NO: 400: GAT polypeptide (protein)
chain: B1 chain with K30M, P62S, L97I, I135V, A146T
modifications: 6_23H7
notes: GAT polypeptide
As to B15, the Kcat was found to be 0.77 s⁻¹ and the Km came out at 1200 µM.

B16: SEQ ID NO: 378: GAT polypeptide (protein)
chain: B1 chain with K30M, P62S, A114V, G128E, A146T
modifications: 4B_7E8
notes: GAT polypeptide
As to B16, the Kcat amounted to 0.342 s⁻¹ and the Km turned out to be 1200 µM.

B17: SEQ ID NO: 389: GAT polypeptide (protein)
chain: B1 chain with K30M, G37R, T39A, P62S, G128E, I135V, A146T
modifications: 6_19B6
notes: GAT polypeptide
Turning to B17, the Kcat was determined as 0.398 s⁻¹ and the Km stood at 700 µM.

B18: SEQ ID NO: 396: GAT polypeptide (protein)
chain: B1 chain with Q24R, K30M, E63G, Q67K, G80E, I135V, A146T
modifications: 6_22C9
notes: GAT polypeptide
Turning to B18, the Kcat is 0.79 s⁻¹ and the Km was determined as 3200 µM.

B19: SEQ ID NO: 373: GAT polypeptide (protein)
chain: B1 chain with T39A, A59S, Q84L, T112I, G128E, A146T
modifications: 4B_1G4
notes: GAT polypeptide
For B19, the Kcat was determined as 0.0617 s⁻¹ and the Km amounted to 1000 µM.

B20: SEQ ID NO: 268: GAT polypeptide (protein)
chain: B1 chain with K30M, G37R, T39A, P62S, G128E, I132T, I135V, A146T
modifications: CHIMERA
notes: GAT polypeptide
On to B20, for which the Kcat is 2.59 s⁻¹ and the Km is 1300 µM.

B21: SEQ ID NO: 385: GAT polypeptide (protein)
chain: B1 chain with T33A, Y81N, G128E, I132V, A146T
modifications: 6_17C5
notes: GAT polypeptide
As for B21, the Kcat was 0.587 s⁻¹ and the Km came out at 1300 µM.

B22: SEQ ID NO: 379: GAT polypeptide (protein)
chain: B1 chain with K30M, G37R, T39A, K119E, G128E, A146T
modifications: 4C_8C9
notes: GAT polypeptide
For the molecule B22, the Kcat came out at 0.15 s⁻¹ and the Km stood at 600 µM.

B23: SEQ ID NO: 390: GAT polypeptide (protein)
chain: B1 chain with G128E, A146T
modifications: 6_19C3
notes: GAT polypeptide
Consider B23, for which the Kcat worked out at 0.385 s⁻¹ and the Km came out at 1400 µM.

B24: SEQ ID NO: 395: GAT polypeptide (protein)
chain: B1 chain with I19V, K30M, T39A, G128E, I132V, I135V, A146T
modifications: 6_21F4
notes: GAT polypeptide
For B24, the Kcat is 0.405 s⁻¹ and the Km turned out to be 700 µM.

B25: SEQ ID NO: 398: GAT polypeptide (protein)
chain: B1 chain with K30M, P62S, E79D, G80E, G128E, A146T
modifications: 6_22H9
notes: GAT polypeptide
B25: the Kcat turned out to be 0.29 s⁻¹ and the Km amounted to 1100 µM.

B26: SEQ ID NO: 399: GAT polypeptide (protein)
chain: B1 chain with K30M, E32G, H61Q, I135V, A146T
modifications: 6_23H3
notes: GAT polypeptide
With B26, the Kcat amounted to 0.732 s⁻¹ and the Km was 1100 µM.

B27: SEQ ID NO: 394: GAT polypeptide (protein)
chain: B1 chain with P62S, G128E, A146T
modifications: 6_20H5
notes: GAT polypeptide
With B27, the Kcat was 0.325 s⁻¹ and the Michaelis-Menten constant (Km) was 800 µM.

B28: SEQ ID NO: 269: GAT polypeptide (protein)
chain: B1 chain with F40L, G80E, G128E, I135T, A146T
modifications: 10_12D7
notes: GAT polypeptide
For the molecule B28, the Kcat worked out at 1.29 s⁻¹ and the Km worked out at 1800 µM.

B29: SEQ ID NO: 375: GAT polypeptide (protein)
chain: B1 chain with K30M, P62S, D131G, A146T
modifications: 4B_2H7
notes: GAT polypeptide
Turning to B29, the Kcat was 0.45 s⁻¹ and the Michaelis-Menten constant (Km) was 6200 µM.

B30: SEQ ID NO: 387: GAT polypeptide (protein)
chain: B1 chain with H17X, K30M, I135V, A146T
modifications: X: residue not identified in the source; ends and bridges not checked
notes: GAT polypeptide
As for B30, the Kcat came out at 0.717 s⁻¹ and the Km came to 1200 µM.

B31: SEQ ID NO: 270: GAT polypeptide (protein)
chain: B1 chain with K30M, G37R, I51V, G80E, I135V, A146T
modifications: 10_15F4
notes: GAT polypeptide
For B31, the Kcat came out at 0.627 s⁻¹ and the Km came out at 1000 µM.

B32: SEQ ID NO: 382: GAT polypeptide (protein)
chain: B1 chain with P62S, G128E, I135V, A146T
modifications: 6_15G7
notes: GAT polypeptide
For B32, the Kcat was 0.807 s⁻¹ and the Km is 1300 µM.

These data come from patent US8008547B2, “Glyphosate-N-acetyltransferase (GAT) genes” (E.I. duPont de Nemours, priority 2000, dated 2011).
